Assay results from publication PMC4031664 (Prion, 2013).

B1: Syrian hamster PrP90–232 (domain or fragment)
chain: not shown
B2: C-terminal PrP domain (mouse PrP 120–231) (domain or fragment)
chain: not shown
B3: PrP-like ectodomain of ZIP5 (domain or fragment)
chain: WVGGSVPNLGPAEQEQNHYLAQLFGLYGENGTLTAGGLARLLHSLGLGRVQGLRLGHHEPPTGRAAPTSGDNFTHRLQEPELSVDIWAGMPLGPSGWGDQEESKAPDLHGSGPSSLDLFQRLLLLDHSLADHLNEDCLNGSQLLVNFGLSPVAPLTPRQFALLCPALLYQIDSRVCIKTPAPAPPGDVLSA
B4: full-length PrP (mouse PrP 23–231) (natural protein)
chain: not shown

Legend:
[1] = target: the molecule itself; test: native gel or EMSA
[2] = target: the molecule itself

| Protein | binding result [1] | stoichiometry N [2] |
| --- | --- | --- |
| B1 | binds | – |
| B2 | binds | – |
| B3 | – | 2 |
| B4 | binds | – |
